The series can be described thus: yeast display, Sf9 membrane polyspecificity reagent, FACS + sequencing; frameworks hold sequencing errors. The method, boiled down:
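Synthetic nanobody libraries on Saccharomyces cerevisiae BJ5465 were galactose-induced for 36–48 hours, stained 1 hour at 4 °C with 10% biotinylated, detergent-solubilized Sf9 membrane reagent and enriched on streptavidin microbeads. FACS then separated cells into low and high (top ~1%) gates by anti-HA (expression) and streptavidin (reagent binding) fluorescence. Genes were colony-PCR amplified, MiSeq 2 × 250 sequenced and CDR-length filtered. A clone's polyreactivity label is that of its gate of origin.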
As for “QVQLGESGGVLVQAGGSLSLSCAASGNIFGRYAMGWYRQAPGKEWELVAANTRSAGSTYYADSVKGRFTISRDNEKTTVYFQMNSLKPEDTAVYYCAAAHWGYAYRRYGYGGQGTQVTVSS”, the “polyreactivity (PSR sort gate)” value was “high polyreactivity”. For the sequence “QVQLGESRGGLVQAVGSLSLSCAAYGFTYDKNAMGWYIQAPGNESALDAAINIRSTYYAESVKGRFTISRDNAKNTVYLQMNSMKPEDTAVYYCANEVPSGYWFNYYYWGQGTQVTVSS”, the “polyreactivity (PSR sort gate)” value is given as “low polyreactivity”. The entry for “QVQLGESVGGLVQAGGSLRLSCAASGSILFPYPMGWYRQAPGKERELVAAISWSGDSTRYADSVKGRFTISRDNAKNTVYLQMNSLKPEVTAVYYCATSSDATGTFAPMDSWGQGTQVTVSS” is “low polyreactivity”.

For “QVQLGETGGGLVQAGGSLRLICAASGSTFTINGMGWSRQAPGKDRELVAAITSGGSTYYADSVKGRFTISRDNAKNTVYLQMNSLKPEDTAVYFCAAADGRDYWGQGTQVTVSS”, the “polyreactivity (PSR sort gate)” value is “low polyreactivity”. As for “QVQLHESGGGLEQAGGSLRLSCAASGYISDIGTMGWYRQAPGKEREFVATIVVGSTTNYADSVKGRFTISRDNAKNSVYLQPESGRYRGVLLRGWLLAVGKFTYWGQGTQETVSS”, the entry is “low polyreactivity”. As for “QVQLHESGGGLVQAGGGLRLSCAASGSISSTGFMGWYRQAPGKEREPVAAIAPGTTTYYADSVKGRFTISRDNAKNTVYLQMNSLRPEDTAVYDCADFTDNRVAFLYWGQGTQVTVSS”, the entry is “low polyreactivity”; as for “QVQLHESGGGLVQAGGGLRLSCAASGSISSTGFMGWYRQPPGKEREPVAAIAPGTTTYYADSVKGRFTISRDNAKNTVYLQMISLRPEDTAVYYCAVFTDNRVAFLYWGQGTQVTVSS”, “low polyreactivity”. The entry for “QVQLHESGGGLVQAGGSLRLSCAASGTISVTYNMGWYRQAPGKEREFVAGNSTGATTNYADSVKDRFTISRDNAKNTLYLQMNRLKPEDTAVYYCAAHIYRQDHFYYWGQGTQVTVSS” is “low polyreactivity”. For “QVQLHESGGGLVQAGGSLRLSCAASGTISYAGPMGWYRQAPGKEREFVAGIGVGSNTNYADSVKGRYTIIRDNAKNTVYLQMNSLKPVDTAVYYCAVGGYAPLGRPYWGQGTQVTVSS”, the “polyreactivity (PSR sort gate)” value is listed as “low polyreactivity”.

Take “QVQLHESGGGLVQAGGSLRLSCAASGTITYAGPMGWYRQAPGKEREFVAGIGVGSNTNYADSVKGRYTIIRDNAINTVYLEKNSLKPEDTPVYYCAVGGYAPLGRPYWGQVTQVTVSS”: the “polyreactivity (PSR sort gate)” value was “low polyreactivity”. With “QVQLHESGGGLVQAGGSLRMSCAASGTISYAGPMGWYLQATGKESEFVAGIGVGSNTNYADSVKGRYTIIRDNAINTLYLQLNSLQPEDTAVYYGAVGGYAPLGRPYWGQGTQVTVRS”, the “polyreactivity (PSR sort gate)” value was “low polyreactivity”.

For “QVQLHESPGGLVLAGGSLRLSCAESGYISWSFTMGLYRKAPGKEREFVAGITYGGISYYADSVKGRFTISRDNAIITVYLQMNTLKPEDTAVYYCAAPQTNPYVYVYWGQGTQVTVSS”, the “polyreactivity (PSR sort gate)” value is “high polyreactivity”. The entry for “QVQLIESGGGLVQAGGSHRLSCAASGRIFAYYAMGWYRQAPGKERELVAGISQRGSRTYYADSVKGRFTISRDNAKNTVYLQMNSLKPEDTAVYYCAARDRRSVTMDYWGQGTQVTVSS” is “high polyreactivity”; for “QVQLIESGGGLVQAGGSLRLSCAASGRIFYYNAMGWYRQAPGKERELVAVITRSGGSTYYADSVKGRFTISRDTAKNTVYLQMNSLKQEDTAVYYCAKTWKGGYGYDYWGQGTQVTVSS” it is “low polyreactivity”.

As to “QVQLIESGGGLVQAGGSLRLSCAASGRTFRRYAMGWYRQAPGKERELVAAIDASGGSTYYADSVMGRFTISRDTSKNTVYLQMTILKQEDSAVSYCNTCSGQLQLQGGRHEYWGQGTQVTVSS”, the “polyreactivity (PSR sort gate)” value was “high polyreactivity”. As for “QVQLKENGVGLVQAGGSLRMSCAASGYISHADEMGWNSQAPGKEHELVASISNGGSTNYADSVKGRFTISRDNAKNSVYLQMNSLKSEDTAVYYCAAWTGQVDINYYWGQGSQVTVSS”, the entry is “low polyreactivity”. As for “QVQLLDSGGGLVQAGCSLRLSCAASGLIFHRNAMGWYRQAPGKERELVAIISSGGGTTYYADSVKGRFTISRDNAKNTVYLQKNSLKPEDTAVYYCNARPRAYGSRGFDYWGQGTQVTVSS”, the entry is “high polyreactivity”; as for “QVQLLDSGGGLVQAGGSLRLSCAASGFTFDDYDKGWYRPPPGKERELVAAISWSGGSTYYADSVKGRFTISRDNAKNTVYLQMNSLKPEDTAVYYCAAERSYGGFDYWGQGTQVTVSS”, “low polyreactivity”. As for “QVQLLDSGGGLVQAGGSLRLSCAASGLILVPNTMGWYRQAPGKERELVADIRSGGTTNYADSVKGRFTISRDNAKNTVYLVMNSLKPEDTAVSYCAKEKYDYVGDYEVDYWGHGTQVTVSS”, the entry is “low polyreactivity”; as for “QVQLLDSGGGLVQAGGSLRLSCAASGSTISRNAMGWYRQAPGKERELVAAITSKGDSSYYADSVKGRFTISRDNAKNTVYLQMNSLKPEDTAVYYCAKDGVPAQDIGMDYWGQGTQVTVSS”, “low polyreactivity”; as for “QVQLLERGGGLVQAGGSLRLSCMASGSILVDRMSWYRQAPGKEHELVATIYDGGITYYADSMTGRFTISRDNAKNTVYLQMIRQRPEDTAVYYCGASFERYRYHVYCGQGTQVTVSS”, “low polyreactivity”. Regarding “QVQLLESGAGLVQAGGSLRLIWAASGIIIGHYGMGWYRQAPGKERELVAVISSSGGRTYYADSVKGRFTISRDNAKNTVYLQMNSLKPEDTAVYYCNGGPQVRYWQGTYEYWGQGTQVTVSS”, the “polyreactivity (PSR sort gate)” value was “high polyreactivity”. As to “QVQLLESGGALVQAVGSLRLSCMASGSILGDRMSWYRQAPGKEHELVATIYDGGITYYADSMKGRFTISRDNAIHTVYLQMNSLRPEDTAVYYCGASLEGYRYNVYCGQGTQVTVSS”, the “polyreactivity (PSR sort gate)” value is “low polyreactivity”. As for “QVQLLESGGGIVQAGGSLRLSCAASGSIFRYYAMGWYRQAPGKEREFVASITYRGGRTYYADSVKGRFTISRDNAKNTVYLQMNSLKPEDTAVYYCAARTRAGAWTSKYHDYWGQGTQVTVSS”, the entry is “high polyreactivity”; as for “QVQLLESGGGIVQAGGSLRLSCAASGSIFWGYAMGWYRQAPGKERELVAAISSSGGNTYYADSVKGRFTISRDNAKNTVYLQMNSLQPEETAVYYCAATPEFYGGKITDVSSQYGYWGQGPQVTVSS”, “low polyreactivity”.

With “QVQLLESGGGLDQAGGSLRLSCAASGRTFDRYAMGWYRQAPGKERELVAAISGRGGSTYYADSVKGRFTISRDNAKNTVYLQMNSLKPEDTAVYYCAARGSLWGAPTDYYYWGQGTQVTVSS”, the “polyreactivity (PSR sort gate)” value was “high polyreactivity”. As for “QVQLLESGGGLDQAGGSLRLSCAAYGRIFGPNAMGWYRQAPGKERELVAAISWSGGTTRYADSVKGRFTISRDNAKNSVYLQMNSQKPEDTAVYYCAASADDRRSGKRYDSWGHGTQVTVSS”, the “polyreactivity (PSR sort gate)” value is reported as “high polyreactivity”. Regarding “QVQLLESGGGLDQAGGTLRLSCAASGGTINLYAMAWYRPAPGKERELVAAISWSGGTTYYADSVKGRFTLSRDNAKNTVYLQIISLKPVDTAVYYCAAYFRTSLGTYDYWGQGTKVTVSS”, the “polyreactivity (PSR sort gate)” value is “high polyreactivity”. On to “QVQLLESGGGLGQAGGRLRLICAASGRTFTPYAMGWYRPAPGKERELVAAIDTSGGSTYADSVKGRFTISRDNAKNTVYLQMNCQKPEDTAVYYCATRGFYSWDYWYLWEYDYWGQGTQVTVSS”, for which the “polyreactivity (PSR sort gate)” value is given as “low polyreactivity”.

On to “QVQLLESGGGLGQAGGSLRLSCAASGSILSINGMGWYRQAPGKERELVATIDGSDGSTFYADSVKGRFTISRDNAKNTVYLQMNSQKPEDTAVYYCAAENFWQTKEYDYWGQGTQVTVSS”, for which the “polyreactivity (PSR sort gate)” value was “low polyreactivity”. The entry for “QVQLLESGGGLLQAGGSLRLSCAASGSIFDFNAMGWYRQAPGKERELVAAITYIGDSTYYADSVKGRFTISRDNAKNTVYLQMNILKPEDTAVYYCANYRYPSRQYSFPLGYDYWGQGTQVTVSS” is “high polyreactivity”; for “QVQLLESGGGLVHAGGSLRLSCAASGRIFLGNAMGWYIQAPRKERELVASISRGGGTTYYADSVKGRITISRDNAKNTVYLQMNRLKPEDTAVYYCAARVYYVVQHGKYVYWGQGTQVTVSS” it is “high polyreactivity”. As for “QVQLLESGGGLVQAGGCLRLSCAASGSIFYPYALGGYRQAPGIVRELVAAISSREGRSYYADSVKGRFTISRDNGKKTVYLQMNSLKPEDTAVYYCAACSFNYGHRFYWGQGSQVTVSS”, the entry is “high polyreactivity”; as for “QVQLLESGGGLVQAGGFLRLSCASSGSTFFIYAMGWYRPAPGKERELDAAISWSGGSTYYADSVKGRFTISPDKANNTVYLQMICLKPEYTAVYYCADESYYFDEYYWGQATQVTVSS”, “high polyreactivity”; as for “QVQLLESGGGLVQAGGILRLSCAASGRIIVYYAMGWYRQAPGKERELVAAITRGGSTKYADSVKGRFTISRDNAKNTVYLQMNSLKPEDTAVYYCATATSRRSGYDYWGQGTQVSVSS”, “high polyreactivity”. The entry for “QVQLLESGGGLVQAGGRLRLSCAASRNTFRQTAMGWNRQAPGKETELVASITSGGSTYYADSVQGRFTISRDNAKNTVYLQMNSLNPEDTAVYYCASRYIRSASWFYRIYDYWGQGTQVTVSS” is “high polyreactivity”; for “QVQLLESGGGLVQAGGSLRISCAASGSTFVRYPMGWYRQAPGKERELVAGISSGDRTYYADSVKGRFTISRDNAKNTVYLQMNSLKPEYTSVYYCNARPVYLLEGYYWGQGTQVTVSS” it is “low polyreactivity”; for “QVQLLESGGGLVQAGGSLRISCAASGSTFVSNAMGWYRQAPGKERELVAAISRSAGRTYYADSVKGRFTISRDTAKNTVYLQMTSLKPEDTAVYYCAARVVHCFGFWGQGTQVTVSS” it is “high polyreactivity”.

For “QVQLLESGGGLVQAGGSLRLSCAASGFNFGGYVMGWYRQAPGKESELVAAISSSGGITHYADSLKGRFTISRDNAKNTVSLQMNRLKPEDTAVYYCNALYRQRYYWGQGTQVTVSS”, the “polyreactivity (PSR sort gate)” value was “high polyreactivity”.

“QVQLLESGGGLVQAGGSLRLSCAASGFNFYRYAMGWYRQAPGKERELVAAIRKSGGSTYYADSVKGRFTISRDNAKNTVYCQMNSLKPEDTAVSYCAKRYATDGFGYWGQGTQVSVSS”: the “polyreactivity (PSR sort gate)” value is “high polyreactivity”.

In the case of “QVQLLESGGGLVQAGGSLRLSCAASGFTFSRYAMGWYRQAPGKERELVAAITSSGGSTYYADSVKGRFTISRDNAKNTVYLQMLSLKPEDSAVYYCAAGKYTASNGYGYWGQGTQVTVSS”, the “polyreactivity (PSR sort gate)” value is on record as “high polyreactivity”.
